Measured values: the supplement of paper PMC10567573

B1: SOAT1 (parent)
chain: VYYIFERLCAPLFRNIKQEPFSAR

Variants of: B1
Assay: protein stability index of a GFP-peptide fusion (GPS, HEK-293T) (PSI 1-6); higher = more stable
Conditions: c terminus: a fixed tail appended
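Also: lentivirally expressed fusions sorted by FACS into six bins by GFP to DsRed ratio, PSI derived from sequencing read proportions per bin multiplied by bin number.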

Variant	protein stability index
VYYIFERLCAPLFRNIKQWPFSAR [E19W]	2.4
VYYIFERLCAPLFRNIKQKPFSAR [E19K]	2.4
VYYIFERLCAPLFRNIKQQPFSAR [E19Q]	3.17
VYYIFERLCAPLFRNIKQIPFSAR [E19I]	2.6
VYYIFERLCAPLFRNIKQHPFSAR [E19H]	1.93
VYYIFERLCAPLFRNIKQLPFSAR [E19L]	1.52
VYYIFERLCAPLFRNIKQCPFSAR [E19C]	3.4
VYYIFERLCAPLFRNIKQFPFSAR [E19F]	1.58
VYYIFERLCAPLFRNIKQDPFSAR [E19D]	2.08
VYYIFERLCAPLFRNIKQMPFSAR [E19M]	1.88
VYYIFERLCAPLFRNIKQTPFSAR [E19T]	2.27
VYYIFERLCAPLFRNIKQNPFSAR [E19N]	1.47
VYYIFERLCAPLFRNIKQYPFSAR [E19Y]	2.41
VYYIFERLCAPLFRNIKQAPFSAR [E19A]	2.12
VYYIFERLCAPLFRNIKQPPFSAR [E19P]	2.76
VYYIFERLCAPLFRNIKQGPFSAR [E19G]	2.86
VYYIFERLCAPLFRNIKQEYFSAR [P20Y]	4.1
VYYIFERLCAPLFRNIKQEGFSAR [P20G]	2.71
VYYIFERLCAPLFRNIKQESFSAR [P20S]	1.36
VYYIFERLCAPLFRNIKQEIFSAR [P20I]	2.71
VYYIFERLCAPLFRNIKQEAFSAR [P20A]	2.34
VYYIFERLCAPLFRNIKQEWFSAR [P20W]	2.79
VYYIFERLCAPLFRNIKQEKFSAR [P20K]	1.88
VYYIFERLCAPLFRNIKQENFSAR [P20N]	2.53

Variant	protein stability index
VYYIFERLCAPLFRNIKQETFSAR [P20T]	3.49
VYYIFERLCAPLFRNIKQEQFSAR [P20Q]	2.44
VYYIFERLCAPLFRNIKQELFSAR [P20L]	2.48
VYYIFERLCAPLFRNIKQEMFSAR [P20M]	2.49
VYYIFERLCAPLFRNIKQEVFSAR [P20V]	2.6
VYYIFERLCAFLFRNIKQEPFSAR [P11F]	1.83
VYYIFERLCARLFRNIKQEPFSAR [P11R]	2.24
VYYIFERLCAILFRNIKQEPFSAR [P11I]	2.89
VYYIFERLCASLFRNIKQEPFSAR [P11S]	1.57
VYYIFERLCAYLFRNIKQEPFSAR [P11Y]	1.83
VYYIFERLCAKLFRNIKQEPFSAR [P11K]	3.65
VYYIFERLCAHLFRNIKQEPFSAR [P11H]	3.92
VYYIFERLCACLFRNIKQEPFSAR [P11C]	1.09
VYYIFERLCAELFRNIKQEPFSAR [P11E]	1.76
VYYIFERLCALLFRNIKQEPFSAR [P11L]	1.89
VYYIFERLCAALFRNIKQEPFSAR [P11A]	1.17
VYYIFERLCAQLFRNIKQEPFSAR [P11Q]	1.25
VYYIFERLCAGLFRNIKQEPFSAR [P11G]	2.08
VYYIFERLCAVLFRNIKQEPFSAR [P11V]	2.39
VYYIFERLCADLFRNIKQEPFSAR [P11D]	1.87
VYYIFERLCAWLFRNIKQEPFSAR [P11W]	2.77
VYYIFERLCANLFRNIKQEPFSAR [P11N]	1.86
VYYIFEWLCAPLFRNIKQEPFSAR [R7W]	3.93
VYYIFEILCAPLFRNIKQEPFSAR [R7I]	5.23

Variant	protein stability index
VYYIFEMLCAPLFRNIKQEPFSAR [R7M]	1.08
VYYIFEDLCAPLFRNIKQEPFSAR [R7D]	4.14
VYYIFESLCAPLFRNIKQEPFSAR [R7S]	4.56
VYYIFEYLCAPLFRNIKQEPFSAR [R7Y]	2.98
VYYIFETLCAPLFRNIKQEPFSAR [R7T]	1.74
VYYIFEHLCAPLFRNIKQEPFSAR [R7H]	2.62
VYYIFERLCAPLHRNIKQEPFSAR [F13H]	2
VYYIFERLCAPLRRNIKQEPFSAR [F13R]	4.31
VYYIFERLCAPLPRNIKQEPFSAR [F13P]	3.2
VYYIFERLCAPLARNIKQEPFSAR [F13A]	1.96
VYYIFERLCAPLSRNIKQEPFSAR [F13S]	2.09
VYYIFERLCAPLTRNIKQEPFSAR [F13T]	4.31
VYYIFERLCAPLIRNIKQEPFSAR [F13I]	2.64
VYYIFERLCAPLNRNIKQEPFSAR [F13N]	3.57
VYYIFERLCAPCFRNIKQEPFSAR [L12C]	2.21
VYYIFERLCAPYFRNIKQEPFSAR [L12Y]	2.16
VYYIFERLCAPMFRNIKQEPFSAR [L12M]	2.71
VYYIFERLCAPGFRNIKQEPFSAR [L12G]	2.59
VYYIFERLCAPHFRNIKQEPFSAR [L12H]	3.56
VYYIFERLCAPPFRNIKQEPFSAR [L12P]	5.2
VYYIFERLCAPIFRNIKQEPFSAR [L12I]	3.19
VYYIFERLCAPNFRNIKQEPFSAR [L12N]	1.98
VYYIFERLCAPEFRNIKQEPFSAR [L12E]	2.07
VYYIFERLCAPFFRNIKQEPFSAR [L12F]	2.5

Variant	protein stability index
VYYIFERLCAPKFRNIKQEPFSAR [L12K]	2.57
VYYIFERLCAPTFRNIKQEPFSAR [L12T]	1.97
VYYIFERLCAPLFRNIKPEPFSAR [Q18P]	2.92
VYYIFERLCAPLFRNIKFEPFSAR [Q18F]	1.28
VYYIFERLCAPLFRNIKKEPFSAR [Q18K]	1.37
VYYIFERLCAPLFRNIKHEPFSAR [Q18H]	3.42
VYYIFERLCAPLFRNIKGEPFSAR [Q18G]	2.28
VYYIFERLCAPLFRNIKNEPFSAR [Q18N]	1.52
VYYIFERLCAPLFRNIKREPFSAR [Q18R]	2.62
VYYIFERLCAPLFRNIKTEPFSAR [Q18T]	1.91
VYYIFERLCAPLFRNIKWEPFSAR [Q18W]	2.6
VYYIFERLCAPLFRNIKMEPFSAR [Q18M]	2.92
VYYIFERLCAPLFRNIKVEPFSAR [Q18V]	1.88
VYYIFERLCAPLFRNIKYEPFSAR [Q18Y]	3.88
VYYIFERLCAPLFRNIKCEPFSAR [Q18C]	2.19
VYYIFERLCAPLFRNIKDEPFSAR [Q18D]	2.9
VYYIFERLCAPLFYNIKQEPFSAR [R14Y]	1.87
VYYIFERLCAPLFKNIKQEPFSAR [R14K]	2.46
VYYIFERLCAPLFTNIKQEPFSAR [R14T]	3.18
VYYIFERLCAPLFQNIKQEPFSAR [R14Q]	3.82
VYYIFERLCAPLFENIKQEPFSAR [R14E]	1.5
VYYIFERLCAPLFINIKQEPFSAR [R14I]	2.04
VYYIFERLCAPLFNNIKQEPFSAR [R14N]	2.44
VYYIFERLCAPLFFNIKQEPFSAR [R14F]	2.56

Variant	protein stability index
VYYIFERLCAPLFDNIKQEPFSAR [R14D]	3.52
VYYIFERLCAPLFCNIKQEPFSAR [R14C]	2.71
VYYIFERLCAPLFPNIKQEPFSAR [R14P]	2.33
VYYIFERLCAPLFANIKQEPFSAR [R14A]	3.64
VYYIFERLCNPLFRNIKQEPFSAR [A10N]	3.54
VYYIFERLCRPLFRNIKQEPFSAR [A10R]	1.53
VYYIFERLCLPLFRNIKQEPFSAR [A10L]	3.17
VYYIFERLCVPLFRNIKQEPFSAR [A10V]	3.16
VYYIFERLCHPLFRNIKQEPFSAR [A10H]	3.56
VYYIFERLCWPLFRNIKQEPFSAR [A10W]	2.4
VYYIFERLCSPLFRNIKQEPFSAR [A10S]	2.39
VYYIFERLCTPLFRNIKQEPFSAR [A10T]	2.74
VYYIFERLCMPLFRNIKQEPFSAR [A10M]	1.39
VYYIFERLCAPLFRNCKQEPFSAR [I16C]	2.46
VYYIFERLCAPLFRNTKQEPFSAR [I16T]	1.58
VYYIFERLCAPLFRNKKQEPFSAR [I16K]	2.45
VYYIFERLCAPLFRNYKQEPFSAR [I16Y]	2.17
VYYIFERLCAPLFRNDKQEPFSAR [I16D]	3.95
VYYIFERLCAPLFRNGKQEPFSAR [I16G]	2.33
VYYIFERLCAPLFRNWKQEPFSAR [I16W]	3.96
VYYIFERLCAPLFRNAKQEPFSAR [I16A]	1.91
VYYIFERLCAPLFRNMKQEPFSAR [I16M]	1.75
VYYIFERLCAPLFRNLKQEPFSAR [I16L]	2.61
VYYIFERLCAPLFRNIKQEPCSAR [F21C]	1.99

Variant	protein stability index
VYYIFERLCAPLFRNIKQEPQSAR [F21Q]	1.77
VYYIFERLCAPLFRNIKQEPRSAR [F21R]	2.74
VYYIFERLCAPLFRNIKQEPMSAR [F21M]	2.64
VYYIFERLCAPLFRNIKQEPSSAR [F21S]	2.13
VYYIFERLCAPLFRNIKQEPDSAR [F21D]	2.17
VYYIFERLCAPLFRNIKQEPLSAR [F21L]	1.7
VYYIFERLCAPLFRNIKQEPASAR [F21A]	2.07
VYYIFERLCAPLFRNIKQEPPSAR [F21P]	2.26
VYYIFERLCAPLFRNIKQEPHSAR [F21H]	1.59
VYYIFERLCAPLFRNIKQEPNSAR [F21N]	1.36
VYYIFERLCAPLFRNIKQEPESAR [F21E]	2.39
VYYIFERLCAPLFRNIKQEPISAR [F21I]	2.94
VYYIFERLCAPLFRNIFQEPFSAR [K17F]	1.74
VYYIFERLCAPLFRNINQEPFSAR [K17N]	2.87
VYYIFERLCAPLFRNIIQEPFSAR [K17I]	1.47
VYYIFERLCAPLFRNICQEPFSAR [K17C]	4.42
VYYIFERLCAPLFRNIVQEPFSAR [K17V]	3.1
VYYIFERLCAPLFRNIYQEPFSAR [K17Y]	2.06
VYYIFERLCAPLFRNIEQEPFSAR [K17E]	3.03
VYYIFERLCAPLFRNIQQEPFSAR [K17Q]	2.52
VYYIFERLCAPLFRNIRQEPFSAR [K17R]	2.04
VYYIFERLCAPLFRNIDQEPFSAR [K17D]	1.76
VYYIFERLCAPLFRNIMQEPFSAR [K17M]	2.78
VYYIFPRLCAPLFRNIKQEPFSAR [E6P]	1.83

Variant	protein stability index
VYYIFLRLCAPLFRNIKQEPFSAR [E6L]	4.01
VYYIFRRLCAPLFRNIKQEPFSAR [E6R]	2.09
VYYIFKRLCAPLFRNIKQEPFSAR [E6K]	2.23
VYYIFTRLCAPLFRNIKQEPFSAR [E6T]	2.61
VYYIFNRLCAPLFRNIKQEPFSAR [E6N]	2.65
VYYIFFRLCAPLFRNIKQEPFSAR [E6F]	3.18
VYYIFMRLCAPLFRNIKQEPFSAR [E6M]	2.41
VYYIFYRLCAPLFRNIKQEPFSAR [E6Y]	2.53
VYYIFWRLCAPLFRNIKQEPFSAR [E6W]	2.59
VYYIFERLCAPLFRHIKQEPFSAR [N15H]	2.86
VYYIFERLCAPLFRAIKQEPFSAR [N15A]	2.28
VYYIFERLCAPLFRGIKQEPFSAR [N15G]	1.65
VYYIFERLCAPLFRMIKQEPFSAR [N15M]	2.01
VYYIFERLCAPLFRRIKQEPFSAR [N15R]	2
VYYIFERLCAPLFREIKQEPFSAR [N15E]	3.52
VYYIFERLCAPLFRKIKQEPFSAR [N15K]	2.84
VYYIFERLCAPLFRCIKQEPFSAR [N15C]	2.61
VYYIFERLCAPLFRYIKQEPFSAR [N15Y]	1.85
VYYIFERLCAPLFRFIKQEPFSAR [N15F]	1.67
VYYIFERLCAPLFRVIKQEPFSAR [N15V]	1.82
VYYIFERLCAPLFRWIKQEPFSAR [N15W]	2.15
VYYIFERLCAPLFRIIKQEPFSAR [N15I]	2.5
VYYIFERLCAPLFRLIKQEPFSAR [N15L]	2.75
VYYIFERLCAPLFRTIKQEPFSAR [N15T]	3.46

Variant	protein stability index
VYYIFERLNAPLFRNIKQEPFSAR [C9N]	1.04
VYYIFERLWAPLFRNIKQEPFSAR [C9W]	4.32
VYYIFERLRAPLFRNIKQEPFSAR [C9R]	3.16
VYYIFERLHAPLFRNIKQEPFSAR [C9H]	2.02
VYYIFERLSAPLFRNIKQEPFSAR [C9S]	2.34
VYYIFERLIAPLFRNIKQEPFSAR [C9I]	1.31
VYYIFERLKAPLFRNIKQEPFSAR [C9K]	1.6
VYYIFERLGAPLFRNIKQEPFSAR [C9G]	3.15
VYYIFERLPAPLFRNIKQEPFSAR [C9P]	3.02
VYYIFERLTAPLFRNIKQEPFSAR [C9T]	2.26
VYYIFERLFAPLFRNIKQEPFSAR [C9F]	1.95
VYYIFERLLAPLFRNIKQEPFSAR [C9L]	1.67
VYYIFERDCAPLFRNIKQEPFSAR [L8D]	3.16
VYYIFERTCAPLFRNIKQEPFSAR [L8T]	2
VYYIFERRCAPLFRNIKQEPFSAR [L8R]	2.86
VYYIFERCCAPLFRNIKQEPFSAR [L8C]	1.64
VYYIFERPCAPLFRNIKQEPFSAR [L8P]	2.29
VYYIFERECAPLFRNIKQEPFSAR [L8E]	3.97
VYYIFERKCAPLFRNIKQEPFSAR [L8K]	3.25
VYYIFERICAPLFRNIKQEPFSAR [L8I]	1.62
